This is an account of results in PMC7857489, “Degradation of MinD oscillator complexes by Escherichia coli ClpXP” (The Journal of Biological Chemistry, 2020).

Assay [1] concerns the target T1, ClpX (E. coli, UniProt P0A6H1 1-424).
T1 construct: ClpX, AAA+ unfoldase of Escherichia coli; concentrations are reported as ClpX hexamers; Purified as a native protein by earlier published methods; also called wildtype ClpX; source: E. coli BL21 (λDE3), overexpressed from a plasmid, purified as native protein
The assay can be described thus: negative-stain transmission electron microscopy; MinC (4 μM), MinD or MinD(R3E) (8 μM), ATP (8 mM), with or without ClpXP, or ClpXP with ATP alone, in copolymer assembly buffer; carbon/formvar grids, fixed with glutaraldehyde, stained with uranyl acetate. The settings on record: both partners purified.

Assay [2] deals with T2, MinD(R3E) (E. coli, UniProt P0AEZ3 1-270, R3E).
T2 construct: MinD of Escherichia coli with Arg 3 changed to glutamate by site-directed mutagenesis; Same construct as m1 apart from R3E; source: E. coli BL21 (λDE3), overexpressed from a plasmid (pEt-MinD(R3E)), purified
T2 sequence (looked up): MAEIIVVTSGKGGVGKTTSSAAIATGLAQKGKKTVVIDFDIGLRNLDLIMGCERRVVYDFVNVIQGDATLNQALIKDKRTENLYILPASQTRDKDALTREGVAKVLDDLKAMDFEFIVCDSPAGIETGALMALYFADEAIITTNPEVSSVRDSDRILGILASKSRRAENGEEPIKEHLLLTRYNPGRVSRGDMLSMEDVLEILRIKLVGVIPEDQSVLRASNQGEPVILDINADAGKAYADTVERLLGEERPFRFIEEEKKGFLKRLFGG
The assay can be described thus: 90° light scatter; MinC (4 μM) and MinD or MinD(R3E) (8 μM) in 20 mM MES pH 6.5, 100 mM KCl, 10 mM MgCl2; after 5 min ATP added alone or with ClpX (0.75 μM), ClpX(E185Q) (0.75 μM), ClpP (0.9 μM) or ClpX and ClpP, with an ATP-regenerating system; monitored for 30 min more. The note with it: both partners purified.

B1: ClpP (enzyme)
chain: not shown
notes: ClpP, serine protease of Escherichia coli; concentrations are reported as ClpP tetradecamers; Purified as a native protein by earlier published methods; source: E. coli BL21 (λDE3), overexpressed from a plasmid, purified as native protein; copies: 14
Regarding B1, the binding result in assay [1] is on record as “binds”.

B2: MinC (natural protein, E. coli, UniProt P18196 1-231, looked up)
chain: MSNTPIELKGSSFTLSVVHLHEAEPKVIHQALEDKIAQAPAFLKHAPVVLNVSALEDPVNWSAMHKAVSATGLRVIGVSGCKDAQLKAEIEKMGLPILTEGKEKAPRPAPTPQAPAQNTTPVTKTRLIDTPVRSGQRIYAPQCDLIVTSHVSAGAELIADGNIHVYGMMRGRALAGASGDRETQIFCTNLMAELVSIAGEYWLSDQIPAEFYGKAARLQLVENALTVQPLN
notes: concentrations are reported as MinC dimers; Purified as a native protein by earlier published methods; source: E. coli BL21 (λDE3), overexpressed from a plasmid (pEt-MinC), purified as native protein
For the molecule B2, the binding result in assay [2] is “binds”.
